Here are results for two molecules from US6531296 (UNIVERSITY OF NORTH CAROLINA AT CHAPEL HILL, dated 2003).

This assay has as its target T1, Src protein (p60^src), in vitro translated (UniProt P12931 2-536, limits assumed).
T1 construct: also called c-Src
Briefly: in vitro translated Src on Rb-GST fusion proteins; data not shown. How it is done: The same procedure was followed for Rb in vitro binding assays, except that the Rb-GST fusion proteins were incubated in the in vitro translated forms of Rak in NP-40 buffer containing 0.5% fraction V bovine serum albumin (Boehringer Mannheim). After three washes with the same buffer, bound proteins were analyzed by SDS-PAGE and detected by autoradiography. Rak was in vitro translated using the TnT-coupled transcription/translation system (Promega) with 2 ug of the pAlt-Rak plasmid. The Rak (1–152) construct was prepared by digesting the pAlt-Rak plasmid with EcoRI to obtain the 5' EcoRI fragment of Rak.
An in vitro binding reaction was then used to further identify the essential components for the Rak-Rb interaction. In vitro translated Rak was incubated with two Rb-GST fusion proteins, where one encoded amino acids 379–928, spanning the A/B pocket and carboxy-terminus (RbABC), while the other fusion protein encoded amino acids 780–928, and represented only the carboxy-terminus (RbC). The in vitro translated full-length Rak protein bound efficiently to the RbABC fusion protein, and approximately 5-fold less to the RbC protein (FIG. 5B, upper panel). […] As a control, the Src protein was in vitro translated and subjected to the same binding reaction, and no binding of Src to any portion of Rb was detected (data not shown).

B1: GST-RbABC, Rb fusion protein encoding amino acids 379-928 (A/B pocket region and COOH-terminal domain) (other, UniProt P06400 379-928, looked up)
chain: MNTIQQLMMILNSASDQPSENLISYFNNCTVNPKESILKRVKDIGYIFKEKFAKAVGQGCVEIGSQRYKLGVRLYYRVMESMLKSEEERLSIQNFSKLLNDNIFHMSLLACALEVVMATYSRSTSQNLDSGTDLSFPWILNVLNLKAFDFYKVIESFIKAEGNLTREMIKHLERCEHRIMESLAWLSDSPLFDLIKQSKDREGPTDHLESACPLNLPLQNNHTAADMYLSPVRSPKKKGSTTRVNSTANAETQATSAFQTQKPLKSTSLSLFYKKVYRLAYLRLNTLCERLLSEHPELEHIIWTLFQHTLQNEYELMRDRHLDQIMMCSMYGICKVKNIDLKFKIIVTAYKDLPHAVQETFKRVLIKEEEYDSIIVFYNSVFMQRLKTNILQYASTRPPTLSPIPHIPRSPYKFPSSPLRIPGGNIYISPLKSPYKISEGLPTPTKMTPRSRILVSIGESFGTSEKFQKINQMVCNSDRVLKRSAEGSNPPKPLKKLRFDIEGSDEADGSKHLPGESKFQQKLAEMTSTRTRMQKQKMNDSMDTSNKEEK
notes: range 379-928; GST fusion prepared like the Rak fusions; also called RbABC fusion protein; Rb-GST fusion protein; not shown: Glutathione S-transferase encoded by the pGEX-4T plasmid (Pharmacia)
Turning to B1, the binding result was “no binding”.

B2: GST-RbC, Rb fusion protein encoding amino acids 780-928 (COOH-terminal domain only) (other, UniProt P06400 780-928, looked up)
chain: SPIPHIPRSPYKFPSSPLRIPGGNIYISPLKSPYKISEGLPTPTKMTPRSRILVSIGESFGTSEKFQKINQMVCNSDRVLKRSAEGSNPPKPLKKLRFDIEGSDEADGSKHLPGESKFQQKLAEMTSTRTRMQKQKMNDSMDTSNKEEK
notes: range 780-928; GST fusion prepared like the Rak fusions; also called RbC protein; Rb-GST fusion protein; not shown: Glutathione S-transferase encoded by the pGEX-4T plasmid (Pharmacia)
In the case of B2, the binding result is “no binding”.
